Experimental data: paper PMC3465084 (Journal of medicinal chemistry, 2012)

Experiments:
Water solubility = format: physicochemical
macrophages = settings: at the concentrations used, even at room temperature for up to 72 hours; cell number or protein content, time course studies of cell function (data not shown)
J774 murine macrophages = assay: CD36 Macrophage Receptor Binding Competition Assay; settings: competition with OxLDL binding
CD36 scavenger receptor = assay: Competition for binding of CuOxLDL to the CD36 scavenger receptor; settings: Figure S1, Supporting Information
mAb E06 = assay: Binding of mAb E06 to compound 9; settings: Figure S2, Supporting Information
[1] = Stability in aqueous solution; format: physicochemical

CCCCCCCCCCCCCCCC(=O)OC[C@H](COP(=O)([O-])OCC[N+](C)(C)C)OC(=O)CCCCN(C)CCCC[C@H](NC(=O)[C@@H](NC(=O)CNC(=O)[C@@H](NC(C)=O)[C@@H](C)O)[C@@H](C)O)C(=O)NCC(=O)NCC(=O)O [Compound 9, (4S,10S,13S,25R)-13-((2-((carboxymethyl)amino)-2-oxoethyl)carbamoyl)-4,10-bis((R)-1-hydroxyethyl)-18-methyl-2,5,8,11,23-pentaoxo-25-((palmitoyloxy)methyl)-24-oxa-3,6,9,12,18-pentaazahexacosan-26-yl-(2-(trimethylammonio)-ethyl) phosphate]
water solubility (in words) (Water solubility): water soluble
impact on viability of macrophages (macrophages): no impact
binding to macrophage scavenger receptors (in words) (J774 murine macrophages): binds to macrophage scavenger receptors
competition for the binding of CuOxLDL to the CD36 scavenger receptor (in words) (CD36 scavenger receptor): competes with high affinity
binding of mAb E06 (in words) (mAb E06): specifically binds
stability in aqueous solution (in words) [1]: stable
